Measured values published in the RNAGym collection of RNA variant scans (doi:10.7554/elife.80360).

B1: CPEB3 Ribozyme (parent)
chain: GGGGGCCACAGCAGAAGCGUUCACGUCGCGGCCCCUGUCAGAUUCUGGUGAAUCUGCGAAUUCUGCUGU

Variants of: B1
Test: self-cleavage, relative activity (ratio to wild type); higher = more cleavage; co-transcriptional

| Variant | self-cleavage |
| --- | --- |
| A40G U46A | 0.971 |
| A40G U46C | 0.942 |
| A40C A60U | 0.217 |
| A40G U49C | 0.877 |
| A40G U49G | 0.999 |
| A40G U49A | 0.969 |
| A40G U67G | 0.965 |
| A40G U67C | 0.901 |
| A40G G50A | 0.918 |
| A40G G50C | 0.943 |
| A40G G50U | 0.971 |
| A40U A59G | 0.887 |
| A40U A59U | 0.459 |
| A40G C54U | 0.952 |
| A40C U46A | 0.866 |
| A40C U46C | 0.273 |
| A40C U46G | 0.802 |
| A40U A42C | 0.419 |
| A40U A42G | 0.189 |
| A40U A42U | 0.46 |
| A40U C54U | 0.759 |

| Variant | self-cleavage |
| --- | --- |
| A40U C54G | 0.457 |
| C39U U55G | 0.661 |
| A40C C57A | 0.2 |
| A40C C57G | 0.316 |
| C39U G68U | 0.95 |
| C39U G68C | 0.97 |
| A40U C45A | 0.629 |
| A40U C45U | 0.799 |
| A40U C45G | 0.744 |
| A40G A51C | 0.927 |
| A40G A51U | 0.891 |
| C39U U67C | 0.882 |
| C39U U67A | 0.902 |
| C39U U67G | 0.923 |
| C39U U61C | 0.435 |
| C39U U61A | 0.766 |
| A40G A60U | 0.486 |
| A40G A60G | 0.859 |
| A40G A60C | 0.329 |
| A40C U53A | 0.311 |
| A40C U53C | 0.219 |

| Variant | self-cleavage |
| --- | --- |
| A40C U53G | 0.15 |
| C39U U62C | 0.514 |
| C39U U62G | 0.622 |
| C39U U62A | 0.702 |
| A40C U64A | 0.357 |
| A40G A59G | 0.935 |
| A40G A59C | 0.568 |
| A40G G68C | 0.953 |
| A40G G68A | 0.954 |
| A40C C54A | 0.244 |
| A40C C54U | 0.523 |
| A40G U43A | 0.809 |
| A40G U43C | 0.764 |
| A40G U43G | 0.614 |
| A40G A42U | 0.763 |
| A40G A42G | 0.822 |
| A40G U61A | 0.863 |
| A40G U61G | 0.823 |
| A40G U61C | 0.48 |
| A40C G41C | 0.324 |
| A40C G41A | 0.333 |

| Variant | self-cleavage |
| --- | --- |
| A40C A52G | 0.583 |
| A40C U69A | 0.865 |
| A40C U69C | 0.965 |
| A40C C63G | 0.315 |
| A40C C63U | 0.388 |
| C39U U53G | 0.61 |
| C39U U53C | 0.382 |
| A40G G41C | 0.433 |
| A40G G41U | 0.722 |
| A40G G41A | 0.706 |
| A40G C63A | 0.689 |
| A40G C63G | 0.563 |
| A40G C63U | 0.915 |
| A40C U67A | 0.518 |
| A40C U67G | 0.744 |
| A40U C63U | 0.77 |
| A40U C63G | 0.392 |
| A40G U62C | 0.649 |
| A40C U49G | 0.658 |
| A40C U49C | 0.584 |
| A40C U49A | 0.679 |
